Positions count from the first letter of the chain named. Names and notes keep the numbering of the source.
Assays:
[1] = target: the molecule itself; assay: SEC + other: SAXS; HPLC-SEC (Agilent Bio SEC-3, 15 °C) directly upstream of the SAXS cell; WT, Q184K and R263Q loaded at 7.4, 10 and 14 mg/ml; mobile phase 100 mM HEPES-Na pH 7.5, 250 mM NaCl, 5% glycerol, 1 mM TCEP; oligomer from Rg and Porod volume of each peak
[2] = target: the molecule itself; assay: dynamic light scattering; 2 mg/ml in 100 mM potassium phosphate pH 7.5, 50 mM KCl, 0.1 mM EDTA, 10 mM β-mercaptoethanol, 10% glycerol, 20 °C; hydrodynamic diameter

B1: wild-type human mitochondrial aspartyl-tRNA synthetase (mt-AspRS) (enzyme)
chain: IPEFSSFVVRTNTCGELRSSHLGQEVTLCGWIQYRRQNTFLVLRDFDGLVQVIIPQDESAASVKKILCEAPVESVVQVSGTVISRPAGQENPKMPTGEIEIKVKTAELLNACKKLPFEIKNFVKKTEALRLQYRYLDLRSFQMQYNLRLRSQMVMKMREYLCNLHGFVDIETPTLFKRTPGGAKEFLVPSREPGKFYSLPQSPQQFKQLLMVGGLDRYFQVARCYRDEGSRPDRQPEFTQIDIEMSFVDQTGIQSLIEGLLQYSWPNDKDPVVVPFPTMTFAEVLATYGTDKPDTRFGMKIIDISDVFRNTEIGFLQDALSKPHGTVKAICIPEGAKYLKRKDIESIRNFAADHFNQEILPVFLNANRNWNSPVANFIMESQRLELIRLMETQEEDVVLLTAGEHNKACSLLGKLRLECADLLETRGVVLRDPTLFSFLWVVDFPLFLPKEENPRELESAHHPFTAPHPSDIHLLYTEPKKARSQHYDLVLNGNEIGGGSIRIHNAELQRYILATLLKEDVKMLSHLLQALDYGAPPHGGIALGLDRLICLVTGSPSIRDVIAFPKSFRGHDLMSNTPDSVPPEELKPYHIRVSKPTDSKAERAHVMYLE
notes: human mitochondrial aspartyl-tRNA synthetase (DARS2), residues 41-645; linker of 5 residues before the C-terminal 6-His tag; Homodimer; also called WT; WT mt-AspRS; not shown: His6, C-terminal, kept
[1]
  stoichiometry N: 2

B2: human mt-AspRS mutant T136S (enzyme)
chain: B1 chain with T96S
notes: human mitochondrial aspartyl-tRNA synthetase (DARS2), residues 41-645, LBSL patient mutation 406A>T (T136S); linker of 5 residues before the C-terminal 6-His tag; Mutation found in LBSL patients; not shown: His6, C-terminal, kept
[2]
  stoichiometry N: 2

B3: human mt-AspRS mutant L626Q (enzyme)
chain: B1 chain with L586Q
notes: human mitochondrial aspartyl-tRNA synthetase (DARS2), residues 41-645, LBSL patient mutation 1876T>A (printed as 626Q in the methods, L626Q elsewhere); linker of 5 residues before the C-terminal 6-His tag; Mutation found in LBSL patients; not shown: His6, C-terminal, kept
[2]
  stoichiometry N: 2

B4: human mt-AspRS mutant L613F (enzyme)
chain: B1 chain with L573F
notes: human mitochondrial aspartyl-tRNA synthetase (DARS2), residues 41-645, LBSL patient mutation 1837C>T (L613F); linker of 5 residues before the C-terminal 6-His tag; Mutation found in LBSL patients; not shown: His6, C-terminal, kept
[2]
  stoichiometry N: 2

B5: human mt-AspRS mutant R58G (enzyme)
chain: B1 chain with R18G
notes: human mitochondrial aspartyl-tRNA synthetase (DARS2), residues 41-645, LBSL patient mutation 172C>G (R58G); linker of 5 residues before the C-terminal 6-His tag; Mutation found in LBSL patients; not shown: His6, C-terminal, kept
[2]
  stoichiometry N: 2
